Data taken from patent US12139520B2 (priority 2020, dated 2024).
Numbered stars: 1 amine (or outer) side, 2 acyl side, 3 side chain; on linkers, the order of the positions; unused ones are H or OH. Bridge positions count the residues as written; N and C are the ends. Square brackets hold non-standard residues; d marks the D form. Side chains are listed from the residue outwards. Ends that are not written are not given here. * marks the point of attachment. C20 diacid = O=C(O)CCCCCCCCCCCCCCCCCCC(=O)*; γGlu = O=C(O)[C@H](CCC(=O)[*:2])N[*:1]; Hyp = O=C(O)[C@@H]1C[C@@H](O)CN1; NMeI = CC[C@H](C)[C@H](NC)C(=O)O; Aad = N[C@@H](CCCC(=O)O)C(=O)O; AEEA = NCCOCCOCC(=O)O; Sar = CNCC(=O)O

T1: hAMY3R (human, UniProt P30988)
T1 sequence 1: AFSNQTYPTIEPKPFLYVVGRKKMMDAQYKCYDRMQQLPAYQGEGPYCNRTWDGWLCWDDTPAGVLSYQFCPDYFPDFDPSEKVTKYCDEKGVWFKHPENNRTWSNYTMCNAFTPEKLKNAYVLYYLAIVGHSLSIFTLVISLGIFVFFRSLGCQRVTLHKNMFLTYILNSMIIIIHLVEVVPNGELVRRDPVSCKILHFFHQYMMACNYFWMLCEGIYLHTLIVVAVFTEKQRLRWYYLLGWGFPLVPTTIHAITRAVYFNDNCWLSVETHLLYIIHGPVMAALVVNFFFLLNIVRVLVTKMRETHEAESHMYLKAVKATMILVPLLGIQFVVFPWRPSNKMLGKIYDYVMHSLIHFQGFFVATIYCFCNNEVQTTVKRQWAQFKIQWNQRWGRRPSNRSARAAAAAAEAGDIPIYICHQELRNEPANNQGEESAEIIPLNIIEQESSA
T1 sequence 2: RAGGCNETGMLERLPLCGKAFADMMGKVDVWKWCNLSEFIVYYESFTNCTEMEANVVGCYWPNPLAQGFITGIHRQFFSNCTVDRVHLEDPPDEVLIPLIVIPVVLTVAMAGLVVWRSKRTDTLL


How the values were obtained:
hAM1R = hAM1R (human, UniProt Q16602); assay: cell-based or functional assay
hAMY3R = molecular target: T1, hAMY3R; assay: cell-based or functional assay

Row | hAM1R EC50 (cAMP) (hAM1R) | hAMY3R EC50 (cAMP) (hAMY3R) | Binder
1 | 2980 nM | 0.013 nM | GCRFGTCTVQRLAHQIYQFTDKDKDNVAPRTNVGPQG[Hyp]-NH2 (disulfide 2-7 (inferred); ends not checked) [SEQ ID NO: 70]
2 | > 5000 nM | 0.012 nM | {C20 diacid-γGlu}-KCNTSTCTVQRLAHQIAQFTDKDKDNVAPPTNVGSNG[Hyp]-NH2 (disulfide 2-7 (inferred); not fully specified; ends not checked) [SEQ ID NO: 62]
3 | > 5000 nM | 0.006 nM | {C20 diacid-γGlu}-KCNTATCTVQRLADQIYQFTDKDKDNVAPPTNVGSNG[Hyp]-NH2 (disulfide 2-7 (inferred); ends not checked) [SEQ ID NO: 5]
4 | > 5000 nM | 0.006 nM | KCNTSTCTVARLADQITQFSNKDKAQVSPPTEVGPNS[Hyp]-NH2 (disulfide 2-7 (inferred); ends not checked) [SEQ ID NO: 8]
5 | 46.2 nM | 0.012 nM | GCRFGTCTVQRLAHFLYQFTDKDKDNVAPRTNVGPQGY [SEQ ID NO: 54]
6 | 103 nM | 0.012 nM | GCRFGTCTVQRLAHFLYQFTDKDKDNVAPRTNVGSNTY [SEQ ID NO: 56]
7 | > 5000 nM | 0.012 nM | KCNTATCATQRLANFLVHSSNNFGAILSSTKVGSNTY [SEQ ID NO: 58]
8 | > 5000 nM | 0.012 nM | KCNTATCATQRLANFLVHSSNNFGAILPSTKVGSNGY [SEQ ID NO: 59]
9 | > 5000 nM | 0.012 nM | KCNTATCTVQRLAHQIYQFTDADKDNVAPPTNVGSNG[Hyp]-NH2 (disulfide 2-7 (inferred); ends not checked) [SEQ ID NO: 64]
10 | > 5000 nM | 0.012 nM | KCNTATCTVQRLAHQIYQFDKDKDNVAPPTNVGSNG[Hyp]-NH2 (disulfide 2-7 (inferred); ends not checked) [SEQ ID NO: 65]
11 | > 5000 nM | 0.013 nM | {C20 diacid-γGlu}-KCNTATCTVQRLAEQIYQFTDKDKDNVAPPTQVGSNG[Hyp]-NH2 (disulfide 2-7 (inferred); not fully specified; ends not checked) [SEQ ID NO: 73]
12 | > 5000 nM | 0.014 nM | {C20 diacid-γGlu}-RCGTATCATERLA[Aad]FLQRSSF[Sar]A[NMeI]LSSTEVGSNT[Hyp]-NH2 (disulfide 2-7 (inferred); not fully specified; ends not checked) [SEQ ID NO: 76]
13 | 680 nM | 0.013 nM | {C20 diacid-γGlu}-KCNTATCTVQRLAHQIAQFTDKDKDNVAPPTNVGSNS[Hyp]-NH2 (disulfide 2-7 (inferred); not fully specified; ends not checked) [SEQ ID NO: 69]
14 | > 5000 nM | 0.012 nM | {C20 diacid-γGlu}-KCNTATCTVQRLAHQIAQFTDKDKDNVAPPTNVGSNG[Hyp]-NH2 (disulfide 2-7 (inferred); not fully specified; ends not checked) [SEQ ID NO: 61]
15 | > 5000 nM | 0.013 nM | KCNTATCTVQRLAHQIYQFTDKDKDNVAPPTNVGSNG[Hyp]-NH2 (disulfide 2-7 (inferred); ends not checked) [SEQ ID NO: 75]
16 | > 5000 nM | 0.006 nM | KCNTATCTVQRLAEQIYQFTDKDKDNVAPPTNVGSK([AEEA-AEEA-γGlu-C20 diacid])G[Hyp]-NH2 (disulfide 2-7 (inferred); ends not checked) [SEQ ID NO: 6]

Row | hAM1R EC50 (cAMP) (hAM1R) | hAMY3R EC50 (cAMP) (hAMY3R) | Binder
17 | > 5000 nM | 0.013 nM | {C20 diacid-γGlu}-KCNTATCTVQRLAHQIAQYTDKDKDNVAPPTNVGSNG[Hyp]-NH2 (disulfide 2-7 (inferred); not fully specified; ends not checked) [SEQ ID NO: 71]
18 | 255 nM | 0.013 nM | {C20 diacid-γGlu}-KCNFATCTVQRLAHQIYQFTDKDKDNVAPPTEVGSNG[Hyp]-NH2 (disulfide 2-7 (inferred); not fully specified; ends not checked) [SEQ ID NO: 68]
19 | > 5000 nM | 0.013 nM | KCNTATCTVQRLAK([AEEA-AEEA-γGlu-C20 diacid])QIYQFTDKDKDNVAPPTNVGSNG[Hyp]-NH2 (disulfide 2-7 (inferred); not fully specified; ends not checked) [SEQ ID NO: 74]
20 | > 5000 nM | 0.011 nM | KCNTATCTVQRLAHQIYQFTDKDKDAVAPPTNVGSNG[Hyp]-NH2 (disulfide 2-7 (inferred); ends not checked) [SEQ ID NO: 52]
21 | > 5000 nM | 0.012 nM | KCNTATCTVQRLAEQIYQFTDKDKDNVSPPTNVGSNG[Hyp]-NH2 (disulfide 2-7 (inferred); ends not checked) [SEQ ID NO: 66]
22 | > 5000 nM | 0.012 nM | {C20 diacid-γGlu}-KCNTATCTVQRLAHQIYQFTDKDKDNVAPPTKVGSNG[Hyp]-NH2 (disulfide 2-7 (inferred); not fully specified; ends not checked) [SEQ ID NO: 60]
23 | > 5000 nM | 0.006 nM | KCNTATCTVQRLAAQIYQFTDKDKDNVAPPTNVGSNG[Hyp]-NH2 (disulfide 2-7 (inferred); ends not checked) [SEQ ID NO: 7]
24 | > 5000 nM | 0.011 nM | {C20 diacid-γGlu}-KCNTATCTVQRLAEQIYQFTDKDKDNVAPPTNVGSNG[Hyp]-NH2 (disulfide 2-7 (inferred); ends not checked) [SEQ ID NO: 51]
25 | 63.8 nM | 0.012 nM | {C20 diacid-γGlu}-KCNTATCTVERLAHQIYQFTDKDKDNVAPPTNVGSNG[Hyp]-NH2 (disulfide 2-7 (inferred); ends not checked) [SEQ ID NO: 55]
26 | > 5000 nM | 0.013 nM | KCQTATCTVQRLAEQIYQFTDKDKDNVAPPTNVGSNGX (not fully specified; C20DA-yGlu at N-terminal; Hyp at X38) [SEQ ID NO: 72]
27 | > 5000 nM | 0.012 nM | {C20 diacid-γGlu}-KCNTATCTVQRLAEQIYQFTDKDKDNVAPPTAVGSNG[Hyp]-NH2 (disulfide 2-7 (inferred); not fully specified; ends not checked) [SEQ ID NO: 63]
28 | > 5000 nM | 0.011 nM | {C20 diacid-γGlu}-KCNTSTCTVQRLAHQIYQFTDKDKDNVAPPTNVGSNG[Hyp]-NH2 (disulfide 2-7 (inferred); ends not checked) [SEQ ID NO: 50]
29 | 116 nM | 0.013 nM | {C20 diacid-γGlu}-KCNFATCTVQRLAHQIYQFTDKDKDNVAPRTEVGSNG[Hyp]-NH2 (disulfide 2-7 (inferred); not fully specified; ends not checked) [SEQ ID NO: 67]
30 | > 5000 nM | 0.011 nM | KCNTATCTVQRLAHQIYQFTDKDKDNVAAPTNVGSNG[Hyp]-NH2 (disulfide 2-7 (inferred); ends not checked) [SEQ ID NO: 53]
31 | 590 nM | 0.012 nM | {C20 diacid-γGlu}-KCNTATCTVQRLAHQIYQFSDKDKDNVAPPTNVGSNG[Hyp]-NH2 (disulfide 2-7 (inferred); ends not checked) [SEQ ID NO: 57]
